Measured values taken from US20240034757A1 (OXFORD UNIVERSITY INNOVATION, published 2024).

Columns and labels:
CXCL8_HUMAN = biological target: T1, CXCL8_HUMAN (human, UniProt P10145 28-99); assay: BLI [Cont.) C]
T1 sequence: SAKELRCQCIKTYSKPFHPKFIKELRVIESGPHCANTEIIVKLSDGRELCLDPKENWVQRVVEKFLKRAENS

CXCL9_HUMAN = biological target: T2, CXCL9_HUMAN (human, UniProt Q07325 23-125); assay: BLI [Cont.) C]
T2 sequence: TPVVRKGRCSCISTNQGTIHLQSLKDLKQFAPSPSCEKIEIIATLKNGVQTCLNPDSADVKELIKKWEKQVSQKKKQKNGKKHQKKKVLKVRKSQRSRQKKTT

CXCL7_HUMAN = biological target: T3, CXCL7_HUMAN (human, UniProt P02775 59-128); assay: BLI [Cont.) C]
T3 sequence: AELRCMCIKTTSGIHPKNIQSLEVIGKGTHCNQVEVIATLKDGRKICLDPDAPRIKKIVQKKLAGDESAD

CXCL3_HUMAN = biological target: T4, CXCL3_HUMAN (human, UniProt P19876 35-107); assay: BLI [Cont.) C]
T4 sequence: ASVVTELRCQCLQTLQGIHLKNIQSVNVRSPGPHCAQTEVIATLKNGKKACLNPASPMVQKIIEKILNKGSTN

CXCL1_HUMAN = biological target: T5, CXCL1_HUMAN (human, UniProt P09341 35-107); assay: BLI [Cont.) C]
T5 sequence: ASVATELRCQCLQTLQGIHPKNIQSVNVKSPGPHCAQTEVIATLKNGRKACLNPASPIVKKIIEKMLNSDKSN

CCL15_HUMAN = biological target: T6, CCL15_HUMAN (human, UniProt Q16663 22-113); assay: BLI
T6 sequence: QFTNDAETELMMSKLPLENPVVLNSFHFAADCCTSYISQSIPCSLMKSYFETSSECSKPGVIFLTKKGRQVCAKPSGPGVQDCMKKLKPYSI

CCL1_HUMAN = biological target: T7, CCL1_HUMAN (human, UniProt P22362 24-96); assay: BLI
T7 sequence: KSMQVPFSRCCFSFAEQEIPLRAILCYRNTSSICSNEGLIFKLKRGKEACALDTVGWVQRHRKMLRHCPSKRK

CCL19_HUMAN = biological target: T8, CCL19_HUMAN (human, UniProt Q99731 22-98); assay: BLI
T8 sequence: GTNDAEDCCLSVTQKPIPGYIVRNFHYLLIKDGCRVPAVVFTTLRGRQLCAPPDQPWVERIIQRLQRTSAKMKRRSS

CCL14_HUMAN = biological target: T9, CCL14_HUMAN (human, UniProt Q16627 22-93); assay: BLI
T9 sequence: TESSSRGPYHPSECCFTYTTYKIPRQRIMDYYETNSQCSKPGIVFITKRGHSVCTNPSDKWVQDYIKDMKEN

CCL13_HUMAN = CCL13_HUMAN (human, UniProt Q99616 24-98); assay: BLI
CCL18_HUMAN = biological target: T10, CCL18_HUMAN (human, UniProt P55774 21-89); assay: BLI
T10 sequence: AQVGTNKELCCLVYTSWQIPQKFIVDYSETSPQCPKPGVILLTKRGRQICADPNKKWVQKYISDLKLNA

CCL3L1_HUMAN = biological target: T11, CCL3L1_HUMAN (human, UniProt P16619 24-93); assay: BLI
T11 sequence: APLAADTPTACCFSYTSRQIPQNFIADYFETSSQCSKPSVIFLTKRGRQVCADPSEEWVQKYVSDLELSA

CCL27_HUMAN = biological target: T12, CCL27_HUMAN (human, UniProt Q9Y4X3 25-112); assay: BLI
T12 sequence: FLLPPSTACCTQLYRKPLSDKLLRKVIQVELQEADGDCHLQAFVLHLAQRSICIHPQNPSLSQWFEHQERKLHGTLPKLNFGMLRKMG

CCL3_HUMAN = biological target: T13, CCL3_HUMAN (human, UniProt P10147 24-92); assay: BLI
T13 sequence: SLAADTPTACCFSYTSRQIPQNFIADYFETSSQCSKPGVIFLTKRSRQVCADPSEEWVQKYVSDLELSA

CCL11_HUMAN = CCL11_HUMAN (human, UniProt P51671 24-97); assay: BLI
CCL28_HUMAN = biological target: T14, CCL28_HUMAN (human, UniProt Q9NRJ3 23-127); assay: BLI
T14 sequence: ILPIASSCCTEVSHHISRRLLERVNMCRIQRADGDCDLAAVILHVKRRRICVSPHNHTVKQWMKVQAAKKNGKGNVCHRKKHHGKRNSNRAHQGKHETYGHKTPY

CCL23_HUMAN = biological target: T15, CCL23_HUMAN (human, UniProt P55773 22-120); assay: BLI
T15 sequence: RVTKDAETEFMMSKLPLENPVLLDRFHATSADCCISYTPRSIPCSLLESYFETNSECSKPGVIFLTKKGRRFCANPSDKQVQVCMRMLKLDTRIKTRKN

CCL16_HUMAN = biological target: T16, CCL16_HUMAN (human, UniProt O15467 24-120); assay: BLI
T16 sequence: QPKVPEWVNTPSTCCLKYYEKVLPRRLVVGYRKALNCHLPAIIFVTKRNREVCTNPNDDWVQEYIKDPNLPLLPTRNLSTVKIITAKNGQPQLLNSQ

CCL21_HUMAN = biological target: T17, CCL21_HUMAN (human, UniProt O00585 24-134); assay: BLI
T17 sequence: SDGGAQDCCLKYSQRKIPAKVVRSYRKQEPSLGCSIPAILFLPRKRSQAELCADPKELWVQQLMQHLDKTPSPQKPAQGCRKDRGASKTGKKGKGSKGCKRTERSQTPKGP

CCL7_HUMAN = CCL7_HUMAN (human, UniProt P80098 24-99); assay: BLI
CCL8_HUMAN = biological target: T18, CCL8_HUMAN (human, UniProt P80075 24-99); assay: BLI
T18 sequence (looked up): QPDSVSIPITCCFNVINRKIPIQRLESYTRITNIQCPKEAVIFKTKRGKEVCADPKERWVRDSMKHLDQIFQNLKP

Sequence of CCL11_HUMAN (P51671 24-97 limits assumed): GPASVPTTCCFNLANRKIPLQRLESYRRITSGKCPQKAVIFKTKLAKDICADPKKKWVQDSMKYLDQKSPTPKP
Sequence of CCL13_HUMAN (Q99616 24-98 limits assumed): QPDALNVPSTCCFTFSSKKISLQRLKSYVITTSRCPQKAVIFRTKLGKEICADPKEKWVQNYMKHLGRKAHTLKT
Sequence of CCL7_HUMAN (P80098 24-99 limits assumed): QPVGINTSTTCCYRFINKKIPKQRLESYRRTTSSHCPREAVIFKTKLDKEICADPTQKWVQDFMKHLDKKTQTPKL

B1: P1243:G4S:P1156 (designed binder)
chain: RNHTEDNSTEYYDYEEARCACPARHLNNTNGTVLKLLGCHYFCNGTLCTAPDGYPCYNLTAQQVRTLTTYPNTSCAVGVCMKGTCVKNGTMEQCFKTPGGGGSADDDNELFTVQYCGMNCTKDEGGTWTGCTGKKEGCKCYHESGKNYGLCLSTEYTDFSQYGNPSDSEIEAAKPKRSDTLSH
Kd (CXCL8_HUMAN): 7.63 nM
binding result (CXCL9_HUMAN): no binding (tested: 300 nM)
binding result (CXCL7_HUMAN): no binding (tested: 300 nM)
binding result (CXCL3_HUMAN): no binding (tested: 300 nM)
Kd (CXCL1_HUMAN): 17.4 nM
Kd (CCL15_HUMAN): 8.71 nM
binding result (CCL1_HUMAN): no binding (tested: 300 nM)
Kd (CCL19_HUMAN): 2.92 nM
Kd (CCL14_HUMAN): 1.99 nM
Kd (CCL13_HUMAN): 1.33 nM
Kd (CCL18_HUMAN): 0.543 nM
Kd (CCL3L1_HUMAN): 4.06 nM
Kd (CCL27_HUMAN): 24.4 nM
Kd (CCL3_HUMAN): 16.4 nM
Kd (CCL11_HUMAN): 19.7 nM
binding result (CCL28_HUMAN): no binding (tested: 300 nM)
Kd (CCL23_HUMAN): 0.632 nM
binding result (CCL16_HUMAN): no binding (tested: 300 nM)
Kd (CCL21_HUMAN): 53.8 nM
Kd (CCL7_HUMAN): 49 nM
Kd (CCL8_HUMAN): 381 nM
